Here are results for three molecules from publication PMC2709985 (Biochemistry, 2009).

Data set [1] has as its target T1, Sfp (Bacillus subtilis, UniProt P39135).
T1 sequence (P39135 1-224): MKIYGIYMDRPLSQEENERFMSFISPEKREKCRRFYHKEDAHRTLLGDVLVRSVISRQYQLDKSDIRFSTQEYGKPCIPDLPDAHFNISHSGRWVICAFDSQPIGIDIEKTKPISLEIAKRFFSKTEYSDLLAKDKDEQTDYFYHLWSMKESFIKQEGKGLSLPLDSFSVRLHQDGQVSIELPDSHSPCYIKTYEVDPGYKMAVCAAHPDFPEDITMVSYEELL
Kind of data set: tritium incorporation into apo MBP-PhsA-His6. The class given is biochemical. The following applies: acceptor apo MBP-PhsA-His6; labelled compound.

Data set [2] deals with T1, Sfp. The data set can be described thus: fluorescent labelling of apo MBP-PhsA-His6, SDS-PAGE. It counts as biochemical. As to conditions: acceptor apo MBP-PhsA-His6; labelled compound.
Substrate in data set [3]: CC(=O)N[C@@H](CC[PH](=O)O)C(=O)O
Kind of data set: ATP-PPi exchange assay. The following applies: holo form (phosphopantetheinylated by Sfp), apparent constant. The class given is biochemical, Streptomyces viridochromogenes.

Substrate in data set [4]: CC(=O)N[C@@H](CCC(=O)O)C(=O)O
The data set can be described thus: ATP-PPi exchange assay. The class given is biochemical, Streptomyces viridochromogenes. As to conditions: holo form (phosphopantetheinylated by Sfp), apparent constant.

Regarding `CC(=O)SCCNC(=O)CCNC(=O)[C@H](O)C(C)(C)COP(=O)(O)OP(=O)(O)OC[C@H]1O[C@@H](n2cnc3c(N)ncnc32)[C@H](O)[C@@H]1OP(=O)(O)O` [[^3H]acetyl-CoA], the “tritium incorporation into apo MBP-PhsA-His6” value in data set [1] was “[^3H]acetyl-CoA was utilized as a cosubstrate, resulting in a time-dependent increase”.

`CC1=CC(C)=[N+]2C1=Cc1ccc(CCC(=O)NCCN3C(=O)CC(SCCNC(=O)CCNC(=O)[C@H](O)C(C)(C)COP(=O)(O)OP(=O)(O)OC[C@H]4O[C@@H](n5cnc6c(N)ncnc65)[C@H](O)[C@@H]4OP(=O)(O)O)C3=O)n1[B-]2(F)F` (some centres unmarked) [BODIPY-FL-N-(2-aminoethyl)maleimidyl-S-CoA]: in data set [2], the “fluorescent labelling of apo MBP-PhsA-His6, SDS-PAGE” value is given as “CoA analogue BODIPY-FL-N-(2-aminoethyl)maleimidyl-S-CoA was employed to install a fluorescently labeled phosphopantetheine arm”.

B1: MBP−PhsA−His6 (Streptomyces viridochromogenes) (protein)
chain: MTAATPDTAPDRTGPSPGACPVVAEFARRAQAGPDRPAVVLPEETVDYRELAARADAVARALLDSRGEGSEPVPLMVLHPAWMLAACLGVLKAGKYYVPLNPHHPDARNRDLLARLGAALVVTDGAVPGRLPGRITVLSVGELDVRPGTPGEPGPAVAPDQWAYALYTSGSTGLPKGILQNRADMRQNIDRHAALGIGPEDRVTLINADGFVAAVSNPYMALLNGAALVPYSFQRDGVHDLIDRLDAAGTTVYYSFPSFLRQAAAVSEGRTTDRVRLAYLGGESVHSSDVLAARRLFPAATVAVGLNSTETGLTRLRLIPPGAEVPDPVPVGGPVPGVEVRVEASPGRPAAVGEAGRIVVRSAFLHAAQWTDQGPRPLTEAVPEADSGTACEPAPRDFRTGDRGRLDGTGQLVHLGRVDGMVKVRGYRVETVEVESAVSAVTGVAEAAVVPYETAEHATELAAYVVAKDPDLTDAALRRALSETLPTHLVPSSVLLVPRLPRTRNGKIDRKALPDPASGTSGTAVSRPAPAHTPAPAPGDGPDEARARVLGQVGEIWSDVLGAGPVLPGDDFFSLGGTSISALRVVSRIRKELGVPLRLAVIFETPSLEAVAESVLRELKGT
Regarding B1, in data set [3], the Km amounted to 254 ± 44 µM, the kcat was 2.08 ± 0.108 s⁻¹ and the kcat/Km is 8170 ± 1500 M⁻¹ s⁻¹. Also, in data set [4], the Km was found to be 493 ± 82 µM, the kcat came to 0.48 ± 0.025 s⁻¹ and the kcat/Km stood at 973 ± 167 M⁻¹ s⁻¹.

One may read the Km as the concentration of substrate that gives half-maximal velocity. One may read the kcat as the number of substrate molecules converted per active site and unit of time at saturation. As a reminder, the kcat/Km is the turnover number divided by the Michaelis constant.
